Measured values from patent US20110020220A1 (DELENEX THERAPEUTICS, published 2011).

Legend:
Biotinylated Abeta40 = target: T1, Biotinylated Abeta40 (UniProt P05067 672-711, biotinylated (site not stated)); assay: ELISA, biotinylated Abeta40 on neutravidin plates, ESBA212 0 to 500 nM
T1 construct: domain: Abeta40 (40 amino acid peptide); Captured on neutravidin-coated ELISA plates; also called beta-amyloid40
Method: (§1) The binding properties of ESBA212 were tested in an ELISA where Abeta40 and Abeta42, respectively, were used as antigens. 96-well plates were coated with 5 μg/ml neutravidin in dilution buffer (PBS/0.01% BSA/0.2% Tween-20) and incubated overnight at 4° C. The plates were then washed 3 times with TBS/0.005% Tween-20. Biotinylated Abeta40 or Abeta42 (1 μg/ml in dilution buffer) were added to each well and the plate incubated for 15 minutes at room temperature. Plates were washed as above and non-specific binding sites were blocked by addition of dilution buffer. The plates were incubated for another 1.5 hours at room temperature while shaking. After washing the prepared ESBA212 dilutions from 0 to 500 nM were added in triplicates to the wells and incubated for 1 hour at room temperature (RT) while shaking. Plates were washed and ESBA212 was detected by a purified rabbit polyclonal anti-ESBA212 antibody (1:10000 in dilution buffer) for 1 hour at RT. After washing a horseradish peroxidase-labelled anti-rabbit IgG (1:4000 in dilution buffer) was used to detect the previously bound rabbit antibodies and […]. The reaction was stopped by addition of 1 M HCl and the absorption read at 450 nm.
(§2) From the measured ESBA212 curve an EC50 could be calculated.

Biotinylated Abeta42 = target: T2, Biotinylated Abeta42 (UniProt P05067 672-713, biotinylated (site not stated)); assay: ELISA, biotinylated Abeta42 on neutravidin plates, ESBA212 0 to 500 nM
T2 construct: domain: Abeta42 (42 amino acid peptide); Captured on neutravidin-coated ELISA plates; also called beta-amyloid42
T2 sequence (P05067 672-713 limits assumed): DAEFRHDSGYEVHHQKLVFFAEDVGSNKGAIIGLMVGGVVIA
Method: as §1, §2

T1 sequence (P05067 672-711 limits assumed): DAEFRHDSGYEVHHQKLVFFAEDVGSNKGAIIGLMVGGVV

B1: ESBA212 (scFv)
scFv: ADIVLTQSPSSLSASVGDRVTLTCRASSSVNYMHWYQQRPGKPPKALIYATSNLASGVPSRFSGSGSGTEFTLTISSLQPEDVAVYYCQQWRTNPPTFGQGTKLEVKRGGGGSGGGGSGGGGSGGGGSQVQLVQSGPEVKKPGASVKVSCTASGYTFTEYTMHWVRQAPGQGLEWMGGVNPYNDNTSYIRKLQGRVTLTVDRSSSTAYMELTSLTSDDTAVYYCARYGGLRPYYFPMDFWGQGTLVTVSS
notes: Humanized scFv with the CDRs of mouse antibody 22C4 on framework 2.3; also called scFv ESBA212; single chain antibody ESBA212
- EC50 (Biotinylated Abeta40): 1 to 15 nM
- EC50 (Biotinylated Abeta42): 1 to 15 nM
